# IntAct's records for PubMed 22101932
# B1: Telomere elongation protein est1 (Schizosaccharomyces pombe (strain ATCC 38366 / 972)), O74804 (parent)
# chain: MSQQLSSNEICEEQGKLVKALCEAAQGGFKHDLYEKIIAIEIEVEKKLLNRLKSIQTNTFERPDIIWSCCHYKIIQHFRSRFREIHPRHVVEKKKTKKVFFKFLKTCAIFYQTCISELISKFQLDSYRPFFCKWTSSATVSSTISNDEMSSIPEASYSRNHMEALECVYNCFIYLGDMARYSSTCLKKRGAYDRALGFYDLAHRTLPGNGMHRNQIAVVWASDECIVESIYWFSSALCSEDPPKSALLNLLKQLIAFYRRCFAVHFEFVSPMMILLFIISDCCIHSLKEIQPFKCPSIMVKDLENSLLQSNIRNVGYEKKNLYYISSAFSNLLHCRYFNCNDRLRSFYYRFSSWLFHQTLACAKEVESERAPTSYLTSCLPSIKVILARVLESSPAFGFIERNELEQLSYHFRICEKFFKESSENKMLNLFEDYNEFGLCKSFICLFKRLNEDIIGPKLNINPPDYTTHPFSESIKRFYQISKILNLLLS
# partner: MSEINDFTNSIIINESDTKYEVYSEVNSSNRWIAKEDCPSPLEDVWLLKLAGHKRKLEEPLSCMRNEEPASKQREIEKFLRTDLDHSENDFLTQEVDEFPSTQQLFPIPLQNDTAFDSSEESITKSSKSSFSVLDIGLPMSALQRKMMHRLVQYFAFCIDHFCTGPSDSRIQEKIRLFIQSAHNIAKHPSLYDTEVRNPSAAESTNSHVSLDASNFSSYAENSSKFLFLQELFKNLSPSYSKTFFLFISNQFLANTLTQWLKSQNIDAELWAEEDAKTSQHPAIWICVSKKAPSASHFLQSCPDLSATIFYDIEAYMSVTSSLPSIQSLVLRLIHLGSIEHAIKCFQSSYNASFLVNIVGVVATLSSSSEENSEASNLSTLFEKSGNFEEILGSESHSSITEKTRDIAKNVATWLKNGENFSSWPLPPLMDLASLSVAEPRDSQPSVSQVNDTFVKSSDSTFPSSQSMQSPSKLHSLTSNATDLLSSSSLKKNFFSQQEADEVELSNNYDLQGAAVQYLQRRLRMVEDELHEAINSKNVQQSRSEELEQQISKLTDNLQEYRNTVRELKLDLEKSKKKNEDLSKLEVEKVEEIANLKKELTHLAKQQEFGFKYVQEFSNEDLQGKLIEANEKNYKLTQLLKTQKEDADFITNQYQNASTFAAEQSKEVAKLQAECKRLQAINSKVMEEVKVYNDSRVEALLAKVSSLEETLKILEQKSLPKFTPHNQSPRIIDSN
# B2: Coiled-coil quantitatively-enriched protein 1 (Schizosaccharomyces pombe (strain ATCC 38366 / 972)), Q10432 (parent)
# chain: B1 partner
# partner: B1 chain
# Variants of: B1
# Conditions: with ccq1_schpo ccq1, Q10432
row,Variant,effect of a mutation on the interaction
1,MSQQLSSNEICEEQGKLVKALCEAAQGGFKHDLYEKIIAIEIEVEKKLLNRLKSIQTNTFERPDIIWSCCHYKIIQHFASRFREIHPRHVVEKKKTKKVFFKFLKTCAIFYQTCISELISKFQLDSYRPFFCKWTSSATVSSTISNDEMSSIPEASYSRNHMEALECVYNCFIYLGDMAAYSSTCLKKRGAYDRALGFYDLAHRTLPGNGMHRNQIAVVWASDECIVESIYWFSSALCSEDPPKSALLNLLKQLIAFYRRCFAVHFEFVSPMMILLFIISDCCIHSLKEIQPFKCPSIMVKDLENSLLQSNIRNVGYEKKNLYYISSAFSNLLHCRYFNCNDRLRSFYYRFSSWLFHQTLACAKEVESERAPTSYLTSCLPSIKVILARVLESSPAFGFIERNELEQLSYHFRICEKFFKESSENKMLNLFEDYNEFGLCKSFICLFKRLNEDIIGPKLNINPPDYTTHPFSESIKRFYQISKILNLLLS [R79A;R180A],disrupting interaction
2,MSQQLSSNEICEEQGKLVKALCEAAQGGFKHDLYEKIIAIEIEVEKKLLNRLKSIQTNTFERPDIIWSCCHYKIIQHFRSRFREIHPRHVVEKKKTKKVFFKFLKTCAIFYQTCISELISKFQLDSYRPFFCKWTSSATVSSTISNDEMSSIPEASYSRNHMEALECVYNCFIYLGDMAAYSSTCLKKRGAYDRALGFYDLAHRTLPGNGMHRNQIAVVWASDECIVESIYWFSSALCSEDPPKSALLNLLKQLIAFYRRCFAVHFEFVSPMMILLFIISDCCIHSLKEIQPFKCPSIMVKDLENSLLQSNIRNVGYEKKNLYYISSAFSNLLHCRYFNCNDRLRSFYYRFSSWLFHQTLACAKEVESERAPTSYLTSCLPSIKVILARVLESSPAFGFIERNELEQLSYHFRICEKFFKESSENKMLNLFEDYNEFGLCKSFICLFKRLNEDIIGPKLNINPPDYTTHPFSESIKRFYQISKILNLLLS [R180A],disrupting interaction
3,MSQQLSSNEICEEQGKLVKALCEAAQGGFKHDLYEKIIAIEIEVEKKLLNRLKSIQTNTFERPDIIWSCCHYKIIQHFASRFREIHPRHVVEKKKTKKVFFKFLKTCAIFYQTCISELISKFQLDSYRPFFCKWTSSATVSSTISNDEMSSIPEASYSRNHMEALECVYNCFIYLGDMARYSSTCLKKRGAYDRALGFYDLAHRTLPGNGMHRNQIAVVWASDECIVESIYWFSSALCSEDPPKSALLNLLKQLIAFYRRCFAVHFEFVSPMMILLFIISDCCIHSLKEIQPFKCPSIMVKDLENSLLQSNIRNVGYEKKNLYYISSAFSNLLHCRYFNCNDRLRSFYYRFSSWLFHQTLACAKEVESERAPTSYLTSCLPSIKVILARVLESSPAFGFIERNELEQLSYHFRICEKFFKESSENKMLNLFEDYNEFGLCKSFICLFKRLNEDIIGPKLNINPPDYTTHPFSESIKRFYQISKILNLLLS [R79A],disrupting interaction

# Variants of: B1
# Conditions: with ccq1_schpo ccq1, Q10432
# Remark: another data set of the same source
row,Variant,effect of a mutation on the interaction
1,MSQQLSSNEICEEQGKLVKALCEAAQGGFKHDLYEKIIAIEIEVEKKLLNRLKSIQTNTFERPDIIWSCCHYKIIQHFASRFREIHPRHVVEKKKTKKVFFKFLKTCAIFYQTCISELISKFQLDSYRPFFCKWTSSATVSSTISNDEMSSIPEASYSRNHMEALECVYNCFIYLGDMARYSSTCLKKRGAYDRALGFYDLAHRTLPGNGMHRNQIAVVWASDECIVESIYWFSSALCSEDPPKSALLNLLKQLIAFYRRCFAVHFEFVSPMMILLFIISDCCIHSLKEIQPFKCPSIMVKDLENSLLQSNIRNVGYEKKNLYYISSAFSNLLHCRYFNCNDRLRSFYYRFSSWLFHQTLACAKEVESERAPTSYLTSCLPSIKVILARVLESSPAFGFIERNELEQLSYHFRICEKFFKESSENKMLNLFEDYNEFGLCKSFICLFKRLNEDIIGPKLNINPPDYTTHPFSESIKRFYQISKILNLLLS [R79A],decreasing interaction
2,MSQQLSSNEICEEQGKLVKALCEAAQGGFKHDLYEKIIAIEIEVEKKLLNRLKSIQTNTFERPDIIWSCCHYAIIQHFRSRFREIHPRHVVEKKKTKKVFFKFLKTCAIFYQTCISELISKFQLDSYRPFFCKWTSSATVSSTISNDEMSSIPEASYSRNHMEALECVYNCFIYLGDMARYSSTCLKKRGAYDRALGFYDLAHRTLPGNGMHRNQIAVVWASDECIVESIYWFSSALCSEDPPKSALLNLLKQLIAFYRRCFAVHFEFVSPMMILLFIISDCCIHSLKEIQPFKCPSIMVKDLENSLLQSNIRNVGYEKKNLYYISSAFSNLLHCRYFNCNDRLRSFYYRFSSWLFHQTLACAKEVESERAPTSYLTSCLPSIKVILARVLESSPAFGFIERNELEQLSYHFRICEKFFKESSENKMLNLFEDYNEFGLCKSFICLFKRLNEDIIGPKLNINPPDYTTHPFSESIKRFYQISKILNLLLS [K73A],decreasing interaction

# Variants of: B2
# Conditions: with est1_schpo est1, O74804
row,Variant,effect of a mutation on the interaction
1,Q94A,decreasing interaction
2,T93D,disrupting interaction

# Variants of: B2
# Conditions: with est1_schpo est1, O74804
# Remark: another data set of the same source
row,Variant,effect of a mutation on the interaction
1,Q94A,disrupting interaction
2,T93A,disrupting interaction strength
3,T93E,disrupting interaction strength
4,T93D,disrupting interaction strength
